The values that follow come from patent US20260184773A1, “THERAPEUTIC SINGLE DOMAIN ANTIBODY” (priority 2021, published 2026).

Test [1] has as its system PANC-1 tumors. The settings on record: PANC-1 xenograft, intraperitoneal for 14 days.
The subject of test [2] is tSTAT3, pSTAT3 and PD-L1 in MDA-MB-231 cells. In words: Immunoblot (slot blot) of tSTAT3, pSTAT3 and PD-L1. Format: cell-based, human. The settings on record: MDA-MB-231, 3, 6 and 24 hours, β-actin normalized, 50-100 ug/ml. For orientation: In western blotting, separated proteins are transferred to a membrane and probed.
In test [3] the test system is ENBOV (Ebola) in HeLa. It is filed as cell-based, Ebola virus.
Test [4] relates to ENBOV (Ebola) in HFF. Format: cell-based, Ebola virus.
The test system of test [5] is Zika in Vero. Format: cell-based, Zika virus.
For test [6], the system named is MDA-MB-231 cells. As to the kind of experiment: Cell penetration by immunofluorescence/confocal microscopy. Format: cell-based, human.
Test [7] deals with HIV-1 RT (Human immunodeficiency virus type 1 group M subtype B, UniProt P04585). The settings on record: read-out: Binding affinity (KD).

For `Nc1ccn([C@@H]2O[C@H](CO)[C@@H](O)C2(F)F)c(=O)n1` [Gemcitabine, gemcitabine, reference compound], in test [1] (Day 12), the “% Inhibition of Control, Day 12” value is reported as 19.51%. Moreover, the “% Inhibition of Control, Day 15” value in test [1] (Day 15) stood at 23.17%. Moreover, the “% Inhibition of Control, Day 19” value in test [1] (Day 19) turned out to be 23.26%. The “% Inhibition of Control, Day 22” value in test [1] (Day 22 (end of the study)) is 14.93%.

On to `Cc1ccc(S(=O)(=O)OCC(=O)Nc2ccc(C(=O)O)c(O)c2)cc1` [S3I-201, reference compound], for which the “Levels of tSTAT3, pSTAT3 and PD-L1” value in test [2] was “decreased”.

B1: SBT-106 (protein)
VHH: EVQLVESGGGSVQAGGSLRLSCAASVYSYNTNCMGWFRQAPGKEREGVAVIYAAGGLTYYADSVKGRFTISQENGKNTVYLTMNRLKPEDTAMYYCAAKRWCSSWNRGEEYNYWGQGTQVTVSS
Consider B1, for which, in test [3], the EC50 was determined as 3490 nM. For the same molecule, the Comment entry in test [4] is listed as “Does not inhibit Ebola virus”. For the same molecule, the “EC50 [μM]” value in test [4] and in test [5] was “No” in each case.

B2: SBT-107: anti-HIV-1 Reverse Transcriptase (RT) VHH, SEQ ID NO. 4 (protein)
VHH: MGDVQLVESGGDSVRAGGSLQLSCKASGYTYNSRVDIRSMGWFRQYPGKEREGVATINIRNSVTYYADSVKGRFTISQDNAKNTVYLQMNALKPEDTAMYYCALSDRFAAQVPARYGIRPSDYNYWGEGTLVTVSSSSGLE
modifications: Camelid
In the case of B2, the “Intracellular staining/localization of VHH” value in test [6] is reported as “no intracellular staining”. In addition, the dissociation constant (Kd) in test [7] came out at 3.85 nM.

As usually defined, the EC50 is the concentration needed to bring the measured effect to its halfway point. A higher EC50 goes with lower potency in that assay. For orientation: Kd means the constant that tells how readily two partners part at equilibrium.
